Source: paper PMC5374410, “Identification of a Potent Allosteric Inhibitor of Human Protein Kinase CK2 by Bacterial Surface Display Library Screening” (Pharmaceuticals, 2017)

Target: CK2β^1–193-pAzF coupled to fluorescein (human) (UniProt P67870)
Assay: MST; B2 titrated (7.6 nM to 125 or 250 µM) to 100 nM fluorophore-labelled CK2α-DBCO-Sulfo-Cy5 or CK2β^1-193-Flu; 50 mM Tris/HCl pH 7.5, 25 mM NaCl, 20 mM MgCl2, Tween-20, DMSO; 37 °C, MST power 60%; Monolith NT.115; three independent measurements

B1: peptide B2 (free synthetic peptide) (peptide)
peptide: DCRGLIVMIKLH
How did the Kd turn out when B1 was run?
The Kd was over 100 µM.
